# From publication PMC2719252
# Target: hexa-His-β6 bundlin (soluble, recombinant WT β6 bundlin) (enteropathogenic Escherichia coli (EPEC) strain RN587/1)
# Experiment: native MS
substance,measurement,value
"hexa-His-β6 bundlin (soluble, recombinant WT β6 bundlin) (natural protein)",stoichiometry N,2
